From US20150044236A1 come the findings set out here.

No end group written: not given here.

In experiment [1] the target is human Kv1.3 voltage-gated potassium channel (human) (UniProt P22001). In words: cell-based or functional assay.
The target of experiment [2] is human Kv1.1 voltage-gated potassium channel (human) (UniProt Q09470). In words: cell-based or functional assay.
Experiment [3] addresses DNP(31)-BSA (2,4-dinitrophenol conjugated to bovine serum albumin, 31 DNP moieties per BSA) (bovine) (UniProt P02769). The experiment can be described thus: BIAcore SPR; antibody captured on anti-human IgG Fc surface, DNP(31)-BSA injected (0.78-100 nM); apparent constants. (In SPR one partner is held on a chip, and binding of the other changes the refractive index at the surface.)

In experiment [4] the target is DNP(3)-BSA (2,4-dinitrophenol conjugated to bovine serum albumin, 3 DNP moieties per BSA) (bovine) (UniProt P02769). The experiment can be described thus: BIAcore SPR; antibody captured on anti-human IgG Fc surface, DNP(3)-BSA injected (0.78-100 nM); apparent constants.
DNP(3)-BSA (2,4-dinitrophenol conjugated to bovine serum albumin, 3 DNP moieties per BSA) (bovine), sequence (P02769 25-607 limits assumed): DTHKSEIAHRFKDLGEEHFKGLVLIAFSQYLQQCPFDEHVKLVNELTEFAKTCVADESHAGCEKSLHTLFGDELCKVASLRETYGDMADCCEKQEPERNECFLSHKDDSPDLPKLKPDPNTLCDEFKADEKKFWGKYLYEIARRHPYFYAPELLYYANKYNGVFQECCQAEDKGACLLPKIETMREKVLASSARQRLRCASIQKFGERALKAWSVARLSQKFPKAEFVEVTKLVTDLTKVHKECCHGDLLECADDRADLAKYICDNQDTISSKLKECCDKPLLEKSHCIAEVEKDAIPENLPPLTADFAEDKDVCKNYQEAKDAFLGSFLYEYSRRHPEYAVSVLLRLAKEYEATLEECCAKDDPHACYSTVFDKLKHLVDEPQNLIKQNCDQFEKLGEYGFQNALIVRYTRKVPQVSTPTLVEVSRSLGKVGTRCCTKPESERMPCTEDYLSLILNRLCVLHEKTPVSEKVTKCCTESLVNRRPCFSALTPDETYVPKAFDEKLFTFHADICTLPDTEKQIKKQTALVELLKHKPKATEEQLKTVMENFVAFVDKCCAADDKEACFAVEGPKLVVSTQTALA
Experiment [5] addresses DNP(31)-BSA (2,4-dinitrophenol conjugated to bovine serum albumin, 31 DNP moieties per BSA) (bovine) (UniProt P02769). The experiment can be described thus: BIAcore SPR; antibody captured on anti-human IgG Fc surface, DNP(31)-BSA injected (0.39-50 nM); apparent constants.
Experiment [6] addresses DNP(3)-BSA (2,4-dinitrophenol conjugated to bovine serum albumin, 3 DNP moieties per BSA) (bovine) (UniProt P02769). In words: BIAcore SPR; antibody captured on anti-human IgG Fc surface, DNP(3)-BSA injected (0.78-100 nM); apparent constants; DNP(3)-BSA, not DNP(31)-BSA.

human Kv1.1 voltage-gated potassium channel (human), sequence (Q09470 whole entry): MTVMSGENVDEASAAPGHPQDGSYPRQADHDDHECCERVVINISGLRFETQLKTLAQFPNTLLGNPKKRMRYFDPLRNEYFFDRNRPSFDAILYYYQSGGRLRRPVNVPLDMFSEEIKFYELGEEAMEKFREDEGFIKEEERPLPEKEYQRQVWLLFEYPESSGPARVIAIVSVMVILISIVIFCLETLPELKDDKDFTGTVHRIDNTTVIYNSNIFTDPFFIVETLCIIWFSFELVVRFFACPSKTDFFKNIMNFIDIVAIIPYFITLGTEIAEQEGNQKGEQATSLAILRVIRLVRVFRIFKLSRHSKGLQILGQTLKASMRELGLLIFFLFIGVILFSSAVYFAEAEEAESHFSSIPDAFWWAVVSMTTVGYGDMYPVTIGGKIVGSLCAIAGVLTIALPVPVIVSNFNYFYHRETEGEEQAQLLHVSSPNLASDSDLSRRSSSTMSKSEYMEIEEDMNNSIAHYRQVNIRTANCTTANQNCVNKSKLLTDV
DNP(31)-BSA (2,4-dinitrophenol conjugated to bovine serum albumin, 31 DNP moieties per BSA) (bovine), sequence (P02769 25-607 limits assumed): as the sequence (P02769 25-607 limits assumed) above
human Kv1.3 voltage-gated potassium channel (human), sequence (P22001 whole entry): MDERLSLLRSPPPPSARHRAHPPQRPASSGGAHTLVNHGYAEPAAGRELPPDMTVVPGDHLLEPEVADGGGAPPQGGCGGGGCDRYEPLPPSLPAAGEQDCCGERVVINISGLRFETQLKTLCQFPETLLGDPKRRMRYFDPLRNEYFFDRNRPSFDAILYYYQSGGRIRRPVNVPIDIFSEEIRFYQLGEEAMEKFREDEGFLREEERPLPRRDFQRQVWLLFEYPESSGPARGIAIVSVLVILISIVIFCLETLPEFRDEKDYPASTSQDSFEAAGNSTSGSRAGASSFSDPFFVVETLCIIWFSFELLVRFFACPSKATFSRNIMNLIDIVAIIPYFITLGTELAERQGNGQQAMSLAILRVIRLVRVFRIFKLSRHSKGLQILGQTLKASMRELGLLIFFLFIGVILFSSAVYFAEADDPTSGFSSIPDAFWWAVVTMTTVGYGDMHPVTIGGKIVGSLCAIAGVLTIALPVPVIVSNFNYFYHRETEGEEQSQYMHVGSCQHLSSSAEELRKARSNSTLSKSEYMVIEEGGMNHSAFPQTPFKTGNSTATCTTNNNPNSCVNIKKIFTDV

For the molecule 20 kDa-PEG-ShK (peptide), in experiment [1], the Kv1.3 IC50 (asterisk: whole cell patch clamp) was 299 pM and the Potency Relative to ShK (WB, IL2) is 5.67 fold. Besides, the Kv1.1 IC50 (asterisk: whole cell patch clamp) in experiment [2] came to 1630 pM.

In experiment [1], “Monovalent Fc/Fc-L10-ShK[2-35] heterodimer (IgG1) (Fc fusion)” had a Potency Relative to ShK (WB, IL2) of 32.1 fold; a WB (IFNg) IC50 of 5200 pM; a WB (IL-2) IC50 of 2150 pM.

As for 20 kDa-PEG-[Lys16]ShK (peptide), the Potency Relative to ShK (WB, IL2) in experiment [1] stood at 1.37 fold.

B1: Bivalent Fc-L10-ShK[2-35] homodimer (IgG1) (Fc fusion)
chain: GGGGSGGGGSSCIDTIPKSRCTAFQCKHSMKYRLSFCRKTCGTC
modifications: not fully specified (N-terminus, bridges); ends and bridges not checked; also: bivalent homodimer via IgG1 Fc
In experiment [1], B1 displayed a Kv1.3 IC50 (asterisk: whole cell patch clamp) of 116 pM; a Potency Relative to ShK (WB, IL2) of 8.73 fold; a WB (IFNg) IC50 of 2280 pM; a WB (IL-2) IC50 of 585 pM. The Kv1.1 IC50 (asterisk: whole cell patch clamp) in experiment [2] stood at 411 pM.

B2: anti-DNP antibody 3B1 (purified from hybridoma) (antibody, human IgG2, kappa, V domains shown)
VH: QVQLQESGPGLVKPSETLSLTCTVSGGSISSYYWSWIRQPPGKGLEWIGYIYYSGNTNSNPSLKSRVTISVDTSKNQFSLKLSSVTAADTAVYYCARTYYDSSGYYYRAFDIWGQGTMVTVSS
VL: DIQMTQSPSSLSASEGDRVTITCRASQGIRNDLGWYQQKPGKAPKRLIYAASSLQSGVPLRFSGSGSGTEFTLTISSLQPEDFATYYCLQYNSYPWTFGQGTKVEIKR
The term koff denotes the first-order rate constant of dissociation. One may read the kon as a measure of how fast the partners come together. On to B2, for which, in experiment [3], the Kd was found to be 200 pM, the koff is 5.8e-05 s⁻¹ and the kon stood at 370000 M⁻¹ s⁻¹. In experiment [4], the Kd is 3000 pM, the koff was found to be 0.00036 s⁻¹ and the kon turned out to be 140000 M⁻¹ s⁻¹.

B3: anti-DNP antibody 3B1-G2 (recombinant, CHO) (antibody, human IgG2, kappa, V domains shown)
VH: QVQLQESGPGLVKPSETLSLTCTVSGGSISSYYWSWIRQPPGKGLEWIGYIYYSGNTNSNPSLKSRVTISVDTSKNQFSLKLSSVTAADTAVYYCARTYYDSSGYYYRAFDIWGQGTMVTVSS
VL: DIQMTQSPSSLSASEGDRVTITCRASQGIRNDLGWYQQKPGKAPKRLIYAASSLQSGVPLRFSGSGSGTEFTLTISSLQPEDFATYYCLQYNSYPWTFGQGTKVEIKR
As to B3, in experiment [5], the Kd was determined as 700 pM, the koff stood at 0.00031 s⁻¹ and the kon was 420000 M⁻¹ s⁻¹.

B4: Bivalent Fc-L10-ShK[1-35] homodimer (IgG1) (Fc fusion)
chain: GGGGSGGGGSRSCIDTIPKSRCTAFQCKHSMKYRLSFCRKTCGTC
modifications: not fully specified (N-terminus, bridges); ends and bridges not checked; also: bivalent homodimer via IgG1 Fc
Turning to B4, in experiment [1], the Kv1.3 IC50 (asterisk: whole cell patch clamp) was determined as 15 pM; the Potency Relative to ShK (WB, IL2) is 5.76 fold; the WB (IFNg) IC50 is 320 pM; the WB (IL-2) IC50 worked out at 386 pM. In experiment [2], this molecule registered a Kv1.1 IC50 (asterisk: whole cell patch clamp) of 67 pM.

B5: anti-DNP antibody 3A1 (purified from hybridoma) (antibody, human IgG2, kappa, V domains shown)
VH: QVQLQESGPGLVKPSETLSLTCTVSGGSISHYYWSWIRQPPGKGLGWIGYIYYSGSTNYNPSLKSRVTISVDTSKNQFSLKLTSVTAADTAVYYCARARGDGYNYPDAFDIWGQGTMVTVSS
VL: DIQMTQSPSSVSASVGDRVTITCRASQGISNWLAWYQRKPGKAPKLLIYAASSLQSGVPSRFSGSGSGTDFTLTISSLQPEDFAAYYCQQASSFPWTFGQGTRVEIKR
In the case of B5, the kon in experiment [6] came to 1200 M⁻¹ s⁻¹; in experiment [3], 34000 M⁻¹ s⁻¹. Also, the Kd came out at 9000 pM in experiment [3] and 526000 pM in experiment [4]. The values for the koff in experiment [3] and in experiment [4] were 0.00031 s⁻¹ and 0.00065 s⁻¹, respectively.
